Earlier results, collected in article PMC3460238.
Like-named read-outs stand apart in the source and are kept apart here.

Tests used:
C3b (Homo sapiens) [1] = target: C3b (Homo sapiens) (UniProt P01024)
C3b (Homo sapiens) [2] = target: C3b (Homo sapiens) (UniProt P01024); remark: listed apart in the source

Chain of C3b (Homo sapiens) (P01024 23-667, chain 1 of 2): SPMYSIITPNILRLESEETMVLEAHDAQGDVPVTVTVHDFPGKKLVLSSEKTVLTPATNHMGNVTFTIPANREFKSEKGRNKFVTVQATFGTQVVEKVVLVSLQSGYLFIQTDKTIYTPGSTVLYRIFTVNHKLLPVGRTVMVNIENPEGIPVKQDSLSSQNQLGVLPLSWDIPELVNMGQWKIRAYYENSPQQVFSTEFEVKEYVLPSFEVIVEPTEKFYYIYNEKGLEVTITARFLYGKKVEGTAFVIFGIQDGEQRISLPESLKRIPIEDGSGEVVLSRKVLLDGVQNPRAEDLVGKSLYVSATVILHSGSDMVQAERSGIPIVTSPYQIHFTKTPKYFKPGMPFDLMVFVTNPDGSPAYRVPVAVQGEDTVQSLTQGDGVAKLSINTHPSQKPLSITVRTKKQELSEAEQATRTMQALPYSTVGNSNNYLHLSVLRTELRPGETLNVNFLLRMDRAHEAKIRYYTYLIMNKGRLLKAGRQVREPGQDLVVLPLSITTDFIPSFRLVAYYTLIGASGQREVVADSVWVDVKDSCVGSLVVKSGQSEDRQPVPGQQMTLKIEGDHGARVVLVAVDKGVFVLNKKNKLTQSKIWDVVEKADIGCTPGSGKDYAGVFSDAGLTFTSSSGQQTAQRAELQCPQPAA
Chain of C3b (Homo sapiens) (P01024 749-1663, chain 2 of 2): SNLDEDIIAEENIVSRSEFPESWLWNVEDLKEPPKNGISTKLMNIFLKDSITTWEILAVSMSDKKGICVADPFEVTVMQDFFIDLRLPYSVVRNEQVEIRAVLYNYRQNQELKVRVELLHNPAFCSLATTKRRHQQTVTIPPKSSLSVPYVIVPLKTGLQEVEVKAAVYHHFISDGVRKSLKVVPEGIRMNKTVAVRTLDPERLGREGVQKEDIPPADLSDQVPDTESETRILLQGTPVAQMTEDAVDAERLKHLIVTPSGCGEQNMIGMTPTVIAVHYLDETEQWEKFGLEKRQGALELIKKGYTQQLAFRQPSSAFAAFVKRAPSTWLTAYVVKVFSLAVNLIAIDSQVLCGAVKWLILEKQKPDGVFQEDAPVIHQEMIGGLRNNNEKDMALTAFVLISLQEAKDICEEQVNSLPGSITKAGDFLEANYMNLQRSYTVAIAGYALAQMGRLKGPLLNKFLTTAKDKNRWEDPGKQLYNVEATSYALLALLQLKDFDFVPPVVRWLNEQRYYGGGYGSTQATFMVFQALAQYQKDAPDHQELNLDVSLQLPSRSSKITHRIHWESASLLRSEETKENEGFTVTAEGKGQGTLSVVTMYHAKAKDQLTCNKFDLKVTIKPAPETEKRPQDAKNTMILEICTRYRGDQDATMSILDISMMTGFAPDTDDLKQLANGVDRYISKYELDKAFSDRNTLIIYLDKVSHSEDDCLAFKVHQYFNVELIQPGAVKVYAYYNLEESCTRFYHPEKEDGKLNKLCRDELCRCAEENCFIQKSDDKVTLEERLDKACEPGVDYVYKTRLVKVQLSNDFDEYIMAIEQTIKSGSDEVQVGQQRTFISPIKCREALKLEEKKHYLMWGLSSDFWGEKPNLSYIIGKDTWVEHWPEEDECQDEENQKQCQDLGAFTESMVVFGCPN
Chain of Factor H (62V) (P08603 19-1231): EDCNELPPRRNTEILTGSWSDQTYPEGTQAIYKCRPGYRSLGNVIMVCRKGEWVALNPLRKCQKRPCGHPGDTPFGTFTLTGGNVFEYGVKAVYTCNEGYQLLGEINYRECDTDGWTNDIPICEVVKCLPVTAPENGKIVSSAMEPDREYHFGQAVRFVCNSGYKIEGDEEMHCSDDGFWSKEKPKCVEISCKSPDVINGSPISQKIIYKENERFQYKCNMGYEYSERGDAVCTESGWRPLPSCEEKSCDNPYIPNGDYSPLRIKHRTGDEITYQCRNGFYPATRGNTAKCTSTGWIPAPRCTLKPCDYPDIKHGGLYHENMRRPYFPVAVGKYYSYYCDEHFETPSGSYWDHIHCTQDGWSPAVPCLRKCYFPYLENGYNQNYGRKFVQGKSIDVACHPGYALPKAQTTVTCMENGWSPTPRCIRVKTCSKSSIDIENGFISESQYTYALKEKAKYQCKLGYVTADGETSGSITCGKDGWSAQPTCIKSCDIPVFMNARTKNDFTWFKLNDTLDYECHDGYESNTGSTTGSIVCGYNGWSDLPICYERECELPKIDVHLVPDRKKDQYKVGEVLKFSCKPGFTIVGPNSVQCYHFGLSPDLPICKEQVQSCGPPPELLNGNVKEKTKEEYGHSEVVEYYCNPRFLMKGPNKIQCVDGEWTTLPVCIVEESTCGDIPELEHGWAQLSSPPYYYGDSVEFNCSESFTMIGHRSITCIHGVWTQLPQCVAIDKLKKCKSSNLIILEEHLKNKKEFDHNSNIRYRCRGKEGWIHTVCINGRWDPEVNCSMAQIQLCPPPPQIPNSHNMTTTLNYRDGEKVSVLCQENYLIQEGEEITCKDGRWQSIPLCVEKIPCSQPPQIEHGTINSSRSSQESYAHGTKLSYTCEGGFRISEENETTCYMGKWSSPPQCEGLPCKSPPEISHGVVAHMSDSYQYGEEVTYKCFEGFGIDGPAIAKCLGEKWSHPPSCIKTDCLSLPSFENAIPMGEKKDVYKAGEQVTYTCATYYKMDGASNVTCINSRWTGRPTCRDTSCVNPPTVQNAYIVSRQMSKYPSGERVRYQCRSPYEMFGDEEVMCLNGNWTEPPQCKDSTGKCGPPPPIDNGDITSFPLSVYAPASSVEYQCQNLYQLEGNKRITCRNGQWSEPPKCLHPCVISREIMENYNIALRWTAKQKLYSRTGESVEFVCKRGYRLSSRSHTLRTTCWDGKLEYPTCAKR

Substance	Kd (C3b (Homo sapiens) [1]) [nM]	Kd (C3b (Homo sapiens) [2]) [nM]
Factor H (62V) (from UniProt P08603)	1300	–
Factor H (62I) (from UniProt P08603)	–	1000
